# Target: HLA-G on cells (K562-HLA-G and HLA-G expressing tumor cells) (human)
# Assay: cell-based or functional assay
row,Binder,"Cytotoxicity, EC50 (T cell-mediated, NCI-H2009-b2m target cells, 72 hr) [nM]"
1,"HC3B216 (bispecific antibody, human IgG1, lambda, L234A L235A) heavy: QVQLQQSGPRLVRPSQTLSLTCAISGDSVFNNNAAWSWIRQSPSRGLEWLGRTYYRSKWLYDYAVSVKSRITVNPDTSRNQFTLQLNSVTPEDTALYYCARGYSSSFDYWGQGTLVTVSSASTKGPSVFPLAPSSKSTSGGTAALGCLVKDYFPEPVTVSWNSGALTSGVHTFPAVLQSSGLYSLSSVVTVPSSSLGTQTYICNVNHKPSNTKVDKKVEPKSCDKTHTCPPCPAPEAAGGPSVFLFPPKPKDTLMISRTPEVTCVVVSVSHEDPEVKFNWYVDGVEVHNAKTKPREEQYNSTYRVVSVLTVLHQDWLNGKEYKCKVSNKALPAPIEKTISKAKGQPREPQVYVYPPSREEMTKNQVSLTCLVKGFYPSDIAVEWESNGQPENNYKTTPPVLDSDGSFALVSKLTVDKSRWQQGNVFSCSVMHEALHNHYTQKSLSLSPG light: QSALTQPASVSGSPGQSITISCTGTSSNIGTYKFVSWYQQHPDKAPKVLLYEVSKRPSGVSSRFSGSKSGNTASLTISGLQAEDQADYHCVSYAGSGTLLFGGGTKLTVLGQPKAAPSVTLFPPSSEELQANKATLVCLISDFYPGAVTVAWKADSSPVKAGVETTTPSKQSNNKYAASSYLSLTPEQWKSHRSYSCQVTHEGSTVEKTVAPTECS scFv: not shown",1.9
2,"HC3B123 (bispecific antibody, human IgG1, kappa, L234A L235A) heavy: EVQLVESGGGLVKPGGSLRLSCAASGFTFSRYNMNWVRQAPGKGLEWVSSISTSSNYIYYADSVKGRFTFSRDNAKNSLDLQMSGLRAEDTAIYYCTRGWGPFDYWGQGTLVTVSSASTKGPSVFPLAPSSKSTSGGTAALGCLVKDYFPEPVTVSWNSGALTSGVHTFPAVLQSSGLYSLSSVVTVPSSSLGTQTYICNVNHKPSNTKVDKKVEPKSCDKTHTCPPCPAPEAAGGPSVFLFPPKPKDTLMISRTPEVTCVVVSVSHEDPEVKFNWYVDGVEVHNAKTKPREEQYNSTYRVVSVLTVLHQDWLNGKEYKCKVSNKALPAPIEKTISKAKGQPREPQVYVYPPSREEMTKNQVSLTCLVKGFYPSDIAVEWESNGQPENNYKTTPPVLDSDGSFALVSKLTVDKSRWQQGNVFSCSVMHEALHNHYTQKSLSLSPG light: DIQMTQSPSSLSASVGDRVTITCRARQSIGTAIHWYQQKPGKAPKLLIKYASESISGVPSRFSGSGSGTDFTLTISSVQPEDFATYYCQQSGSWPYTFGQGTKLEIKRTVAAPSVFIFPPSDEQLKSGTASVVCLLNNFYPREAKVQWKVDNALQSGNSQESVTEQDSKDSTYSLSSTLTLSKADYEKHKVYACEVTHQGLSSPVTKSFNRGEC scFv: DIVMTQSPDSLAVSLGERATINCKSSQSVLHSSNNKNYLTWFQQKPGQPPKLLIYWASTRESGVPDRFSGSGSGTDFTLTISSLQAEDVAVYYCHQYYSTPPTFGQGTKVEIKGGSEGKSSGSGSESKSTGGSQVQLQQSGPGLVKPSQTLSLTCAISGDSVSSNSAAWNWIRQSPSRGLEWLGRTYYRSKWYNDYAVSVKSRITINPDTSKNQISLQLNSVTPEDTAVYYCAGDRRYGIVGLPFAYWGQGTLVTVSSEPKSSDKTHTCPPCPAPEAAGGPSVFLFPPKPKDTLMISRTPEVTCVVVSVSHEDPEVKFNWYVDGVEVHNAKTKPREEQYNSTYRVVSVLTVLHQDWLNGKEYKCKVSNKALPAPIEKTISKAKGQPREPQVYVLPPSREEMTKNQVSLLCLVKGFYPSDIAVEWESNGQPENNYLTWPPVLDSDGSFFLYSKLTVDKSRWQQGNVFSCSVMHEALHNHYTQKSLSLSPG",0.00324
3,"HC3B214 (bispecific antibody, human IgG1, kappa, L234A L235A) heavy: EVQLVESGGGLVKPGGSLRLSCAASGFTFSRYNMNWVRQAPGKGLEWVSSISTSSNYIYYADSVKGRFTFSRDNAKNSLDLQMSGLRAEDTAIYYCTRGWGPFDYWGQGTLVTVSSASTKGPSVFPLAPSSKSTSGGTAALGCLVKDYFPEPVTVSWNSGALTSGVHTFPAVLQSSGLYSLSSVVTVPSSSLGTQTYICNVNHKPSNTKVDKKVEPKSCDKTHTCPPCPAPEAAGGPSVFLFPPKPKDTLMISRTPEVTCVVVSVSHEDPEVKFNWYVDGVEVHNAKTKPREEQYNSTYRVVSVLTVLHQDWLNGKEYKCKVSNKALPAPIEKTISKAKGQPREPQVYVYPPSREEMTKNQVSLTCLVKGFYPSDIAVEWESNGQPENNYKTTPPVLDSDGSFALVSKLTVDKSRWQQGNVFSCSVMHEALHNHYTQKSLSLSPG light: DIQMTQSPSSLSASVGDRVTITCRARQSIGTAIHWYQQKPGKAPKLLIKYASESISGVPSRFSGSGSGTDFTLTISSVQPEDFATYYCQQSGSWPYTFGQGTKLEIKRTVAAPSVFIFPPSDEQLKSGTASVVCLLNNFYPREAKVQWKVDNALQSGNSQESVTEQDSKDSTYSLSSTLTLSKADYEKHKVYACEVTHQGLSSPVTKSFNRGEC scFv: not shown",0.138
4,"HC3B238 (bispecific antibody, human IgG1, kappa, L234A L235A) scFv: EVQLVESGGGLVKPGGSLRLSCAASGFTFSRYNMNWVRQAPGKGLEWVSSISTSSNYIYYADSVKGRFTFSRDNAKNSLDLQMSGLRAEDTAIYYCTRGWGPFDYWGQGTLVTVSSGGSEGKSSGSGSESKSTGGSDIQMTQSPSSLSASVGDRVTITCRARQSIGTAIHWYQQKPGKAPKLLIKYASESISGVPSRFSGSGSGTDFTLTISSVQPEDFATYYCQQSGSWPYTFGQGTKLEIKEPKSSDKTHTCPPCPAPEAAGGPSVFLFPPKPKDTLMISRTPEVTCVVVSVSHEDPEVKFNWYVDGVEVHNAKTKPREEQYNSTYRVVSVLTVLHQDWLNGKEYKCKVSNKALPAPIEKTISKAKGQPREPQVYVYPPSREEMTKNQVSLTCLVKGFYPSDIAVEWESNGQPENNYKTTPPVLDSDGSFALVSKLTVDKSRWQQGNVFSCSVMHEALHNHYTQKSLSLSPGK heavy: QVQLQQSGPGLVKPSQTLSLTCAISGDSVSSNRAAWNWIRQSPSRGLEWLGRTYYRSKWYNDYAVSVKSRITINPDTSKNQISLQLNSVTPEDTAVYYCARVRPGIPFDYWGQGTPVTVSSASTKGPSVFPLAPSSKSTSGGTAALGCLVKDYFPEPVTVSWNSGALTSGVHTFPAVLQSSGLYSLSSVVTVPSSSLGTQTYICNVNHKPSNTKVDKKVEPKSCDKTHTCPPCPAPEAAGGPSVFLFPPKPKDTLMISRTPEVTCVVVSVSHEDPEVKFNWYVDGVEVHNAKTKPREEQYNSTYRVVSVLTVLHQDWLNGKEYKCKVSNKALPAPIEKTISKAKGQPREPQVYVLPPSREEMTKNQVSLLCLVKGFYPSDIAVEWESNGQPENNYLTWPPVLDSDGSFFLYSKLTVDKSRWQQGNVFSCSVMHEALHNHYTQKSLSLSPG light: not shown",0.0173
5,"HC3B237 (bispecific antibody, human IgG1, kappa, L234A L235A) scFv: DIQMTQSPSSLSASVGDRVTITCRARQSIGTAIHWYQQKPGKAPKLLIKYASESISGVPSRFSGSGSGTDFTLTISSVQPEDFATYYCQQSGSWPYTFGQGTKLEIKGGSEGKSSGSGSESKSTGGSEVQLVESGGGLVKPGGSLRLSCAASGFTFSRYNMNWVRQAPGKGLEWVSSISTSSNYIYYADSVKGRFTFSRDNAKNSLDLQMSGLRAEDTAIYYCTRGWGPFDYWGQGTLVTVSSEPKSSDKTHTCPPCPAPEAAGGPSVFLFPPKPKDTLMISRTPEVTCVVVSVSHEDPEVKFNWYVDGVEVHNAKTKPREEQYNSTYRVVSVLTVLHQDWLNGKEYKCKVSNKALPAPIEKTISKAKGQPREPQVYVYPPSREEMTKNQVSLTCLVKGFYPSDIAVEWESNGQPENNYKTTPPVLDSDGSFALVSKLTVDKSRWQQGNVFSCSVMHEALHNHYTQKSLSLSPGK heavy: QVQLQQSGPGLVKPSQTLSLTCAISGDSVSSNRAAWNWIRQSPSRGLEWLGRTYYRSKWYNDYAVSVKSRITINPDTSKNQISLQLNSVTPEDTAVYYCARVRPGIPFDYWGQGTPVTVSSASTKGPSVFPLAPSSKSTSGGTAALGCLVKDYFPEPVTVSWNSGALTSGVHTFPAVLQSSGLYSLSSVVTVPSSSLGTQTYICNVNHKPSNTKVDKKVEPKSCDKTHTCPPCPAPEAAGGPSVFLFPPKPKDTLMISRTPEVTCVVVSVSHEDPEVKFNWYVDGVEVHNAKTKPREEQYNSTYRVVSVLTVLHQDWLNGKEYKCKVSNKALPAPIEKTISKAKGQPREPQVYVLPPSREEMTKNQVSLLCLVKGFYPSDIAVEWESNGQPENNYLTWPPVLDSDGSFFLYSKLTVDKSRWQQGNVFSCSVMHEALHNHYTQKSLSLSPG light: not shown",0.133
